For this data set, the system named is ATP. The data set can be described thus: switch fluorescence ratio, 500 uM ATP over buffer (Cy3 cluster intensity, sum of 5 cycles each) (fold (ratio)); higher = stronger signal-on switching upon ATP binding; sequences stand for … in TCGTCGGCAGCGTCAGATGTGTATAAGAGACAGTTTTTTTTTTTTTTTTTTTTTTTTT…TC. Conditions: aptamer strand: ATP DNA aptamer (quencher-CACCTGGGGGAGTATTGCGGAGGAAGG + anchor), 100 nM annealed; ATP concentration: 500 uM. The method in brief:
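Clusters carrying Cy3-labelled switching strands on a modified Illumina MiSeq flow-cell were annealed to 100 nM quencher-labelled ATP aptamer and imaged in selection buffer. They were imaged again after 15 min with 500 uM ATP at 22 °C, over five buffer/ATP cycles with NaOH stripping and re-annealing in between. For each cluster, the fluorescence ratio is the summed Cy3 intensity of the target cycles divided by that of the buffer cycles, averaged per switch-domain sequence. Clusters outside 100-1000 RFU were left out.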

± gives the standard deviation of the averaged measurements.
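Also: ATP exposure 15 min at 22 °C before imaging.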

On to TTTTTTAACT, for which the switch fluorescence ratio was found to be 1 ± 0.046. TTTTTTAAGC: the switch fluorescence ratio is 1.01 ± 0.018. The same measure for TTTTTTAAGG: 1 ± 0.034. The same measure for TTTTTTACTG: 0.991 ± 0.026; for TTTTTTAGCC: 1.02 ± 0.091.

For the sequence TTTTTTAGT, the switch fluorescence ratio is 0.992 ± 0.027.

In the case of TTTTTTATCT, the switch fluorescence ratio was 1.05 ± 0.07. Next, TTTTTTATGC: 0.997 ± 0.018. For TTTTTTCCCC, the switch fluorescence ratio came out at 1.04 ± 0.047.

Consider TTTTTTCGCT, for which the switch fluorescence ratio was 1.02 ± 0.047. Next, TTTTTTCGTG: 1.001 ± 0.0077; TTTTTTCTG: 1.04 ± 0.097; TTTTTTGATA: 0.981 ± 0.022.

Take TTTTTTGC: the switch fluorescence ratio was 0.955 ± 0.011. Next, TTTTTTGCT: 0.996 ± 0.039; TTTTTTGGCT: 0.995 ± 0.025; TTTTTTGTAC: 1.06 ± 0.037. The same measure for TTTTTTTAAT: 1 ± 0.028; for TTTTTTTAGG: 0.982 ± 0.03.

On to TTTTTTTATG, for which the switch fluorescence ratio came to 0.989 ± 0.037. Next, TTTTTTTATT: 1 ± 0.03. As to TTTTTTTCAT, the switch fluorescence ratio was 1 ± 0.028. The same measure for TTTTTTTCCA: 1.02 ± 0.013; for TTTTTTTGCT: 0.994 ± 0.024. The same measure for TTTTTTTGTC: 1.02 ± 0.028; for TTTTTTTTTC: 1.04 ± 0.11; for TTTTTTTTTT: 1.01 ± 0.083.

The values above are taken from the supplement of paper PMC10126150.
